Sequences and labels used below:
B1: glmS ribozyme (parent)
chain: AUAAAAGCGCCAGAACUACAGAAAUGUAGUUGACGAGGAGGAGGUUUAUCGAAUUUUCGGCGGAUGCCUCCAAA

Holding throughout (details): with glucosamine-6-phosphate
The variants in series [1] derive from B1. The experiment in a line: kcat; higher = faster cleavage; RNA array. Put shortly: (§1)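 E. coli RNA polymerase transcribed barcoded ribozyme variants in situ on sequenced MiSeq chips, which were tracked via a hybridised Cy3 probe at 37 °C. Tiles were imaged over ~14 h after glucosamine-6-phosphate (40 μM to 10 mM) in HEPES/KCl/Mg(OAc)2 buffer was flowed in. Normalised per-tile medians were fit to one- or two-exponential decays for kobs, and kcat and KM came from weighted Michaelis–Menten fits.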

Series [2] covers variants of B1. The experiment in a line: self-cleavage kobs at 160 uM GlcN6P; higher = faster cleavage; RNA array. The gist of the method: as §1
Variants of B1 are the subject of series [3]. The experiment in a line: KM; higher = weaker cofactor use; RNA array. The gist of the method: as §1
The variants in series [4] derive from B1. The experiment in a line: self-cleavage kobs at 40 uM GlcN6P; higher = faster cleavage; RNA array. Put shortly: as §1
Variants of B1 are the subject of series [5]. The experiment in a line: self-cleavage kobs at 640 uM GlcN6P; higher = faster cleavage; RNA array. Put shortly: as §1
Variants of B1 are the subject of series [6]. The experiment in a line: self-cleavage kobs at 2500 uM GlcN6P; higher = faster cleavage; RNA array. The gist of the method:
as §1

The variants in series [7] derive from B1. The experiment in a line: self-cleavage kobs at 10000 uM GlcN6P; higher = faster cleavage; RNA array. The gist of the method:
as §1

± gives the standard error. For some assays here: This sample holds only a part of the variants without activity. Bounds are passed on as bounds.

One may read the kcat as the maximal rate divided by the concentration of active sites. With AUAAAAGCGCGAGAAUUACAGAAAUGUAGUUGACGAGGAGGAGGUUUAUCGAAUUUUCGGCGGAUGCCUCCAAA [C11G C16U], the kcat with glucosamine-6-phosphate [1] is below 1e-05 s⁻¹. Besides, the “self-cleavage kobs at 160 uM GlcN6P” value in the series with glucosamine-6-phosphate [2] is below 1e-05 s⁻¹.
As to AUAAAAGCGCCAGAACUACAGAAAUGUAGUUGACGAGGAGGAGGUUUAUCGAAUUUUCGGGGGAUGUCUCCAAA [C61G C67U], in the series with glucosamine-6-phosphate [1], the catalytic constant (kcat) turned out to be 2.12e-05 ± 5.2e-06 s⁻¹.
For orientation: KM means the concentration of substrate that gives half-maximal velocity. Regarding AUAAAAGCGCCAGAACUACAGAAAUGUAGUUGACGAGGAGGAGGGUUAUCGAAUUUUCGGCGGAUGCCUUCAAA [U45G C70U], the turnover number (kcat) with glucosamine-6-phosphate [1] is 0.00681 ± 0.0021 s⁻¹. Also, in the series with glucosamine-6-phosphate [3], the Michaelis constant (KM) was 562 ± 260 µM. Further, in the series with glucosamine-6-phosphate [4], the “self-cleavage kobs at 40 uM GlcN6P” value is 0.000542 ± 5.6e-05 s⁻¹. The “self-cleavage kobs at 160 uM GlcN6P” value in the series with glucosamine-6-phosphate [2] was 0.00139 ± 0.00018 s⁻¹. Moreover, the “self-cleavage kobs at 640 uM GlcN6P” value with glucosamine-6-phosphate [5] stood at 0.00288 ± 0.0004 s⁻¹. In addition, the “self-cleavage kobs at 2500 uM GlcN6P” value in the series with glucosamine-6-phosphate [6] came out at 0.00473 ± 0.00096 s⁻¹. For the same variant, in the series with glucosamine-6-phosphate [7], the “self-cleavage kobs at 10000 uM GlcN6P” value came out at 0.0102 ± 0.0013 s⁻¹.
On to AUAAAAGCGCCAUAACUACAGAAAUGUAGUUGACGAGGAGGAGGUUUAUCGAAUUUUCUGCGGAUGUCUCCAAA [G13U G59U C67U], for which the turnover number (kcat) with glucosamine-6-phosphate [1] came to 1.71e-05 ± 6.1e-06 s⁻¹.
Turning to AUAAAAGCGCCAGAACUACAGAAAUGUAGUUGACGAGGAGGAGGUUUAUCGAAUUUUCGGCGGAUGCUACCAAA [C68U U69A], the kcat with glucosamine-6-phosphate [1] amounted to 1.58e-05 ± 6.2e-06 s⁻¹. Moreover, the “self-cleavage kobs at 40 uM GlcN6P” value with glucosamine-6-phosphate [4] was below 1e-05 s⁻¹.
On to AUAAAAGCGCCAGGACUACAGAAAUGUAUUUGACGAGGAGGAGGUUUAUCGAAUUUUCGGCGGAUGCCUCCAAA [A14G G29U], for which the turnover number (kcat) in the series with glucosamine-6-phosphate [1] amounted to 0.00845 ± 0.0039 s⁻¹. Moreover, the “self-cleavage kobs at 40 uM GlcN6P” value with glucosamine-6-phosphate [4] was determined as 0.000647 ± 0.00012 s⁻¹. The “self-cleavage kobs at 160 uM GlcN6P” value with glucosamine-6-phosphate [2] came out at 0.00105 ± 0.00022 s⁻¹. Besides, the “self-cleavage kobs at 640 uM GlcN6P” value with glucosamine-6-phosphate [5] came to 0.00497 ± 0.00096 s⁻¹. Also, the “self-cleavage kobs at 2500 uM GlcN6P” value in the series with glucosamine-6-phosphate [6] was determined as 0.00501 ± 0.0013 s⁻¹. Moreover, the “self-cleavage kobs at 10000 uM GlcN6P” value in the series with glucosamine-6-phosphate [7] was 0.0131 ± 0.0033 s⁻¹.
As for AUAAAAGCGCCAGAACUACAGAAAUGUAGAUGACGAGGAGAAGGUUUAUCGAAUUUUCGGCGGAUGCCUCCAAA [U30A G41A], in the series with glucosamine-6-phosphate [1], the kcat stood at 0.000441 ± 3.4e-05 s⁻¹. Also, the KM in the series with glucosamine-6-phosphate [3] stood at 6390 ± 730 µM. The “self-cleavage kobs at 640 uM GlcN6P” value with glucosamine-6-phosphate [5] came to 3.92e-05 ± 1.2e-05 s⁻¹. Also, the “self-cleavage kobs at 2500 uM GlcN6P” value with glucosamine-6-phosphate [6] is 0.000127 ± 2.3e-05 s⁻¹. The “self-cleavage kobs at 10000 uM GlcN6P” value with glucosamine-6-phosphate [7] was 0.000265 ± 5.7e-05 s⁻¹.
On to AUAAAAGCGCCAGAACUACAGAAAUGUAGUUGACGUGGAGGAGGUUUAUCGAAUUUACGGCGGAUCCCUCCAAA [A36U U57A G66C], for which the kcat in the series with glucosamine-6-phosphate [1] was below 1e-05 s⁻¹.
As for AUAAAAGCGCCAGAACUACAGAAAUGUAGUUGACAAGCAGGAGGUUUAUCGAAUUUUCGGCGGAUGCCUCCAAA [G35A G38C], the kcat with glucosamine-6-phosphate [1] is below 1e-05 s⁻¹. The “self-cleavage kobs at 640 uM GlcN6P” value in the series with glucosamine-6-phosphate [5] is below 1e-05 s⁻¹.
Consider AUAAAAGCGCCAGAACUACAGAAAUGUACUUGACGAGGAGUAGGUUUAUCGAAUUUUCGGCGGAUGCCUCCAAA [G29C G41U], for which, in the series with glucosamine-6-phosphate [1], the turnover number (kcat) is 5.56e-05 ± 4e-07 s⁻¹. Also, the KM in the series with glucosamine-6-phosphate [3] turned out to be 2090 ± 57 µM. Moreover, the “self-cleavage kobs at 2500 uM GlcN6P” value with glucosamine-6-phosphate [6] is 3.01e-05 ± 1.1e-05 s⁻¹. Moreover, the “self-cleavage kobs at 10000 uM GlcN6P” value in the series with glucosamine-6-phosphate [7] was 4.6e-05 ± 7.7e-06 s⁻¹.
For the variant AUAAAAGCGCCAGAACUACAGAAAUGUAGUUGACGAGGAUGAGGUUCAUCGAAUUUUCGGCGGAUGCCUCCAAA [G40U U47C], the kcat in the series with glucosamine-6-phosphate [1] was determined as 0.00133 ± 0.00022 s⁻¹. Moreover, the Michaelis constant (KM) in the series with glucosamine-6-phosphate [3] stood at 2010 ± 550 µM. Further, the “self-cleavage kobs at 40 uM GlcN6P” value with glucosamine-6-phosphate [4] stood at 3.24e-05 ± 8.9e-06 s⁻¹. In addition, in the series with glucosamine-6-phosphate [2], the “self-cleavage kobs at 160 uM GlcN6P” value was 0.000104 ± 2.3e-05 s⁻¹. In addition, the “self-cleavage kobs at 640 uM GlcN6P” value with glucosamine-6-phosphate [5] turned out to be 0.000287 ± 3.6e-05 s⁻¹. The “self-cleavage kobs at 2500 uM GlcN6P” value with glucosamine-6-phosphate [6] came out at 0.000958 ± 0.00014 s⁻¹. Further, in the series with glucosamine-6-phosphate [7], the “self-cleavage kobs at 10000 uM GlcN6P” value is 0.00106 ± 0.00013 s⁻¹.

(Values after the supplement of paper PMC7125110.)
